Assay [1] addresses human DLL3 on DMS-153 cells (human) (UniProt Q9NYJ7). As to the kind of experiment: cell-based or functional assay.
Assay [2] has as its target biotinylated human DLL3 protein expressed as a human IgG1 fusion protein (human) (UniProt Q9NYJ7). In words: Octet, biotinylated human DLL3-IgG1 fusion on streptavidin tips, single 50 nM, conditioned medium (relative KD). On the technique in general: Biolayer interferometry detects binding as a change in optical thickness at a sensor tip.

Chain of human DLL3 on DMS-153 cells (human) (Q9NYJ7 27-618 limits assumed): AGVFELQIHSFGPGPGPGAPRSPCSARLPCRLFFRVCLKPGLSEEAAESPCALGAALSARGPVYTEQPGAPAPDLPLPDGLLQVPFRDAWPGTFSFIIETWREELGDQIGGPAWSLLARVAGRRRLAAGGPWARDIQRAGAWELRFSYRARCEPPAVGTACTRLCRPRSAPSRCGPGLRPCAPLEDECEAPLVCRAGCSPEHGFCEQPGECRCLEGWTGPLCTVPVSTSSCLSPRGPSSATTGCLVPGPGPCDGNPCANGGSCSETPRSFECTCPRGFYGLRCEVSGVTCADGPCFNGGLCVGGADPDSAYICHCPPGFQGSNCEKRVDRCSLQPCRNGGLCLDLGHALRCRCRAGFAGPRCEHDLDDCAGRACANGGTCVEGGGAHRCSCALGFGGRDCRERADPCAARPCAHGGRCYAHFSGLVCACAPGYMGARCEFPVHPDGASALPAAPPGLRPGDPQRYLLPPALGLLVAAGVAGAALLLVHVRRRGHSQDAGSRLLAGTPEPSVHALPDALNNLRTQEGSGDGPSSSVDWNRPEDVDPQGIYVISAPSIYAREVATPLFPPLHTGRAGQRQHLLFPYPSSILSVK
Chain of biotinylated human DLL3 protein expressed as a human IgG1 fusion protein (human) (Q9NYJ7 27-492): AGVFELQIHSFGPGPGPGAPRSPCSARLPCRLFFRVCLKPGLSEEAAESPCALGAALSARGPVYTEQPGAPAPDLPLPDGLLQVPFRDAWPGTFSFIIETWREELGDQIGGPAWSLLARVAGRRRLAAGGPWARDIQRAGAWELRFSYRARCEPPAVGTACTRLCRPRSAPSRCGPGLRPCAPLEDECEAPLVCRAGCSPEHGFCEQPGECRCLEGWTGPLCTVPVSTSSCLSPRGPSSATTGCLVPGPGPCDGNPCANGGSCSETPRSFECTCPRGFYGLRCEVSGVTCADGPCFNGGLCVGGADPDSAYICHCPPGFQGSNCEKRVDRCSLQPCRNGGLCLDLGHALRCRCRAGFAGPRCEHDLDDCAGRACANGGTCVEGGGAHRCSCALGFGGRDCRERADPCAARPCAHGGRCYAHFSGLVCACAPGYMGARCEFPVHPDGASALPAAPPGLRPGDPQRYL

B1: anti-DLL3 trispecific protein, DLL3 binder 2E01 (protein, part only; not given: anti-CD3 and anti-albumin domains, part only)
chain, part: EVQLVESGGGLVQPGGSLTLSCVASGSTSSINAMGWYRRAPFKQGELPAGISPDGTKAYADSAKVRFTISRDNAKNSVYLQMNSLRAEDTAVYYCYYFHTVCGTSMGYWGQGTLVTVSSGGGGSGGGSGGGGSGGGSHHHHHH
Turning to B1, the DMS-153 TDCC EC50 (conditioned medium, human T cells) in assay [1] came out at 0.033 nM.

B2: anti-DLL3 trispecific protein, DLL3 binder 4D011 (protein, part only; not given: CD3 binder and albumin binder, part only)
chain, part: EVQLVESGGGLVQPGGSLTLSCAASGSSVRFLSMAWYRQAPGKKRELVAGISVDGSTDYIDSVKGRFTISRDNAKNSVYLQMNSLRAEDTAVYYCYAYRWRTRYTYWGQGTLVTVSSGGGGSGGGSGGGGSGGGSHHHHHH
On to B2, for which the TDCC EC50 (CHO expressed, purified protein; method of Example 2, DMS-153 cells) in assay [1] was determined as 0.098 nM.

B3: anti-DLL3 trispecific protein, DLL3 binder 4D02 (protein, part only; not given: CD3 fragment and albumin sdAb, part only)
chain, part: EVQLVESGGGLVQPGGSLTLSCAASGSKVSFLSMAWYRQAPGKKRELVAGISARGSTDYIDSVKGRFTISRDNAKNSVYLQMNSLRAEDTAVYYCYAYQWTTRYTYWGQGTLVTVSSGGGGSGGGSGGGGSGGGSHHHHHH
As usually defined, the Kd is a measure of binding affinity in units of concentration. Lower therefore signals tighter binding. For B3, in assay [2], the Kd was determined as 30 nM.

B4: anti-DLL3 trispecific protein, DLL3 binder 3D09 (protein, part only; not given: anti-CD3 fragment and anti-albumin domain, part only)
chain, part: EVQLVESGGGLVQPGGSLTLSCAASGSSVSRLSMAWYRQAPGKKRELVAGISANGSTTYIDSVKGRFTISRDNAKNSVYLQMNSLRAEDTAVYYCYAYRWTTRYRYWGQGTLVTVSSGGGGSGGGSGGGGSGGGSHHHHHH
The molecule B4 registered a Kd in assay [2] of 32 nM.

B5: anti-DLL3 trispecific protein, DLL3 binder 4H11-M34L (protein, part only; not given: anti-CD3 and anti-albumin domains, part only)
chain, part: EVQLVESGGGLVQPGGSLTLSCAASGSSVSRLSLAWYRQAPGKKRELVAGISVDGSTDYIDSVKGRFTISRDNAKNSVYLQMNSLRAEDTAVYYCYAYRWTTRLTYWGQGTLVTVSSGGGGSGGGSGGGGSGGGSHHHHHH
Molecule B5 yielded a TDCC EC50 (CHO expressed, purified protein; method of Example 2, DMS-153 cells) in assay [1] of 0.13 nM.

B6: anti-DLL3 trispecific protein, DLL3 binder 4H05 (protein, part only; not given: anti-CD3 fragment and anti-albumin sdAb, part only)
chain, part: EVQLVESGGGLVQPGGSLTLSCAASGSSVSRLSMAWYRQAPGKKRELVAGISARGSTDYIDSVKGRFTISRDNAKNSVYLQMNSLRAEDTAVYYCYAYRWTTRSTYWGQGTLVTVSSGGGGSGGGSGGGGSGGGSHHHHHH
In assay [2], B6 gave a Kd of 64 nM.

B7: anti-DLL3 trispecific protein, DLL3 binder 4A04 (protein, part only; not given: CD3 binder and albumin binder, part only)
chain, part: EVQLVESGGGLVQPGGSLTLSCAASGSRVSFLSMAWYRQAPGKKRELVAGISARGSTDYIDSVKGRFTISRDNAKNSVYLQMNSLRAEDTAVYYCYAYRWSTRYTYWGQGTLVTVSSGGGGSGGGSGGGGSGGGSHHHHHH
In assay [2], B7 gave a Kd of 35 nM.

B8: anti-DLL3 trispecific protein, DLL3 binder 2E010 (protein, part only; not given: anti-CD3 and anti-albumin domains, part only)
chain, part: EVQLVESGGGLVQPGGSLTLSCVASGSTSSINAMAWYRRAPGKQRELVAGISSDGSKVYADSVKGRFTISRDNAKNSVYLQMNSLRAEDTAVYYCYYFHTVSGSSMRYWGQGTLVTVSSGGGGSGGGSGGGGSGGGSHHHHHH
Molecule B8 had a DMS-153 TDCC EC50 (conditioned medium, human T cells) in assay [1] of 0.031 nM.

B9: anti-DLL3 trispecific protein, DLL3 binder 1F08 (protein, part only; not given: anti-CD3 fragment and anti-albumin sdAb, part only)
chain, part: EVQLVESGGGLVQPGGSLTLSCVASGSTSSINAMAWYRRAPGKQRELVAGISSDGSKVYKDSVKGRFTISRDNAKNSVYLQMNSLRAEDTAVYYCYYFRNVSGSSMRYWGQGTLVTVSSGGGGSGGGSGGGGSGGGSHHHHHH
In turn, B9 returned a Kd in assay [2] of 31 nM.

B10: anti-DLL3 trispecific protein, DLL3 binder 1F09 (protein, part only; not given: CD3 binder and albumin binder, part only)
chain, part: EVQLVESGGGLVQPGGSLTLSCVASGNTSSINAMGWYRRAPGKQRELVAGISSNGSKVYADSVKGRFTISRDNAKNSVYLQMNSLRAEDTAVYYCYYFRTVTGSSMRYWGQGTLVTVSSGGGGSGGGSGGGGSGGGSHHHHHH
In turn, B10 came in with a Kd in assay [2] of 35 nM.

B11: anti-DLL3 trispecific protein, DLL3 binder 1G06 (protein, part only; not given: anti-CD3 fragment and anti-albumin sdAb, part only)
chain, part: EVQLVESGGGLVQPGGSLTLSCVASGSTSSINAIGWYRRAPGKQRELVAGISSDGSKVYAVSVKGRFTISRDNAKNSVYLQMNSLRAEDTAVYYCYYFRKVSGSSARYWGQGTLVTVSSGGGGSGGGSGGGGSGGGSHHHHHH
B11: the Kd in assay [2] came to 26 nM.

The values above are taken from patent US20200095340A1.
